Values of other authors, collected in article PMC7642319.

Molecular target: NbpSH3 SH3 (Saccharomyces cerevisiae) (UniProt Q12163)
Sequence (Q12163 107-174): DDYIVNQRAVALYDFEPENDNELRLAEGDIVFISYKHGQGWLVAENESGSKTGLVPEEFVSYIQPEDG

Ste20, sequence (Q03497 2-939): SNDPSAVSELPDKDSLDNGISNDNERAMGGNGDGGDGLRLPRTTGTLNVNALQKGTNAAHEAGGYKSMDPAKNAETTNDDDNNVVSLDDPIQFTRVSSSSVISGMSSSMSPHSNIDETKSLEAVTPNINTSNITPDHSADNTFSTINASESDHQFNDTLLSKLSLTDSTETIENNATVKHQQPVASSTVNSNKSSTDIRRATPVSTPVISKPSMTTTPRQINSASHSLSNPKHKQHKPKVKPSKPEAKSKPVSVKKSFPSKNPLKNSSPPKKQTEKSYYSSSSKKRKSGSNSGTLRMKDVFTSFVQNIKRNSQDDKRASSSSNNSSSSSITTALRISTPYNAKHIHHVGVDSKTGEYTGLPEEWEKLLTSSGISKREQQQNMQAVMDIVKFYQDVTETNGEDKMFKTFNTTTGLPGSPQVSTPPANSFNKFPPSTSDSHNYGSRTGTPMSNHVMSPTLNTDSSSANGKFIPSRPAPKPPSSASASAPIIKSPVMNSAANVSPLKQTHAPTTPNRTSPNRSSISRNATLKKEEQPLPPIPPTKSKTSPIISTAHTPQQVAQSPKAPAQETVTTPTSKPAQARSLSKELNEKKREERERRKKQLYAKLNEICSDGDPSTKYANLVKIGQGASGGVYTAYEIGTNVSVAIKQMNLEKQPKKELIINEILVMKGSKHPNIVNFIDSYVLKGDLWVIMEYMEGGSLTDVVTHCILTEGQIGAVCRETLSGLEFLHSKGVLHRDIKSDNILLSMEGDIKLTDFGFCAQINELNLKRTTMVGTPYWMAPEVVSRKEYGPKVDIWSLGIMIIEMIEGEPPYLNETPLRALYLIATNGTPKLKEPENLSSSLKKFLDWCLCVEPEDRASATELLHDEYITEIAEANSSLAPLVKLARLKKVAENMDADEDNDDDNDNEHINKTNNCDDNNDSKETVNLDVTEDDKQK

**Q.** Which Kd does the source give for Ste20 (from UniProt Q03497) here?
**A.** 200 nM
